Experimental data taken from PMC7160673, “A Degenerate Peptide Library Approach to Reveal Sequence Determinants of Methyllysine-Driven Protein Interactions” (Frontiers in Cell and Developmental Biology, 2020).
Where no end group is shown, it is not given here. [ ]: non-standard residue; d: D form. The star is where a group is joined. 5FAM = O=C1OC2(c3ccc(O)cc3Oc3cc(O)ccc32)c2ccc(C(=O)*)cc21; Lys(Me3) = C[N+](C)(C)CCCC[C@H](N)C(=O)O

Key:
[1] = target: T1, Chromodomain Y-like protein 2 chromodomain; experiment: fluorescence polarisation; protein serially diluted with 10 nM FAM peptide; 25 mM HEPES pH 7.5, 100 mM NaCl, 0.05% NP-40; anisotropy fitted by specific binding with Hill slope; conditions: both partners purified
T1 construct: Chromodomain Y-like protein 2 (CDYL2), chromodomain; also called CDYL2 chromo; source: E. coli BL21, purified (glutathione resin); not shown: GST, N-terminal, kept
T1 sequence (Q8N8U2 whole entry, species assumed, looked up): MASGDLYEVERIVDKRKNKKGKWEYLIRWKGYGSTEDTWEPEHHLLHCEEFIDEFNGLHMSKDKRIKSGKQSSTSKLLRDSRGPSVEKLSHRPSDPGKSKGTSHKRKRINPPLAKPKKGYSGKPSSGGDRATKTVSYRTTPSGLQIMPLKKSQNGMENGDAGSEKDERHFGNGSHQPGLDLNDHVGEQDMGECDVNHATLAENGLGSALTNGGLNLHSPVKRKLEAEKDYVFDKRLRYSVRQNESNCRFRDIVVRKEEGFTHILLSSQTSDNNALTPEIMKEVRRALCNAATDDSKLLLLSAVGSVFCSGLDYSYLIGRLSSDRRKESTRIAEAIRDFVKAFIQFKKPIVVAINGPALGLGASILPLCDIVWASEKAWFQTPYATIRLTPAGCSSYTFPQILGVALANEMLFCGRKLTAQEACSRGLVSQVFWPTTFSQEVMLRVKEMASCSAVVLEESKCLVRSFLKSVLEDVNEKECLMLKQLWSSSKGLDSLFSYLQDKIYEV

[2] = target: T2, M Phase Phosphoprotein 8 chromodomain (UniProt Q99549 55-116); experiment: as above; conditions: both partners purified
T2 construct: M-phase phosphoprotein 8 (MPP8), chromodomain; also called MPP8 chromo; MPP8; source: E. coli BL21, purified (glutathione resin); not shown: GST, N-terminal, kept
T2 sequence: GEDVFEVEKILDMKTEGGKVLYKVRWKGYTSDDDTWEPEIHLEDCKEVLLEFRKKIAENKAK

| Kd [1] | Kd [2] | Binder |
| --- | --- | --- |
| 0.1 ± 0.0066 µM | – | 5FAM-WAY[Lys(Me3)]TGK (also: flanking glycines, number not given here) [FAM-WAY(Kme3)TGK peptide] |
| – | 6 µM | 5FAM-WSK[Lys(Me3)]RRR (also: flanking glycines, number not given here) [FAM-WSK(Kme3)RRR peptide] |
